Test results published in US12102672B2, “Immunogenic sequences from a phage tail length tape measure protein, bacteria expressing the same and their use in treating a cancer” (INSTITUT GUSTAVE ROUSSY, priority 2017, dated 2024).

Columns and labels:
[1] = system: prophage 1 and 2 of EH13144; conditions: mitomycin C 1 μg/ml; 37° C. and 42° C.; without capside disruption
Description: Protocol for phage excision by mitomycin C.
PCR was run to detect specific sequences of the prophage 1 or 2.

[2] = target: HLA-A*0201 with TMP peptide […] on peptide-pulsed autologous cells (human; Enterococcus hirae 13144 (prophage 2, TMP))
[3] = target: HLA-A*0201 with TMP peptide … on peptide-pulsed autologous cells (human; Enterococcus hirae 13144 (prophage 2, TMP))
[4] = target: fluorescent H-2K^b/[…] (SEQ ID No: 13) tetrameric complex (mouse; Enterococcus hirae 13144 (39.2 kb prophage, TMP)) (UniProt P01901); assay: flow cytometry with the fluorescent H-2K^b/… tetramer

For `CO[C@@]12[C@H](COC(N)=O)C3=C(C(=O)C(C)=C(N)C3=O)N1C[C@@H]1N[C@@H]12` [mitomycin C], the “prophage 1 and 2 excision from EH13144” value [1] was “prophage 1 and 2 excision”.
With “CD8+ T cells from PBMC of six HLA-A2+ healthy volunteers (cells without a defined receptor)” the IFNγ ELISPOT after in vitro stimulation [2] was 50 % of HV and the IFNγ ELISPOT after in vitro stimulation [3] was 50 % of HV.
In the case of “splenic CD8+ T cells of mice gavaged with E. hirae 13144 and treated with CTX (cells without a defined receptor)”, the percentage of splenic CD8+ T cells recognising the tetramer [4] was < 1%.
